In publication PMC11623273:
Like-named read-outs stand apart in the source and are kept apart here.

B1: E2_S2_1 (design 2K6Z_01), epitope scaffold displaying HCV E2 epitope I (protein)
chain: MGSFTEGWVRFSPGPNAAAYLTLENPGDLPLRLVGARTPVAERVELWETQLINTNGSWHIGSRPVPFLEVPPKGRVELSPGGYYFHLLGLKRPLKAGEEVELDLLFAGGKVLKVVLPVEARGSENLYFQ
B2: soluble HCV E2 ectodomain (sE2) (protein)
chain: GTTTVGGAVARSTNVIAGVFSHGPQQNIQLINTNGSWHINRTALNCNDSLNTGFLAALFYTNRFNSSGCPGRLSACRNIEAFRIGWGTLQYEDNVTNPEDMRPYCWHYPPKPCGVVPARSVCGPVYCFTPSPVVVGTTDRRGVPTYTWGENETDVFLLNSTRPPQGSWFGCTWMNSTGFTKTCGAPPCRTRADFNASTDLLCPTDCFRKHPDATYIKCGSGPWLTPKCLVHYPYRLWHYPCTVNFTIFKIRMYVGGVEHRLTAACNFTRGDRCDLEDRDRSQLSPLLHSTTEWAILPCTYSDLPALSTGLLHLHQNIVDVQYMYGLSPAITKYVVR

Columns and labels:
Fab AP33 (Mus musculus) [1] = details: other; Disulfide-linked heavy and light Fab chains. No candidate fits and the paper prints no AP33 sequence. PDB 4GAG (murine AP33 Fab with the E2 412-423 peptide) is cited from memory; entities 1 and 2 are assumed to be the antibody chains, and the peptide entity is excluded. The C-terminal double Strep tag on the heavy chain is omitted. The constant-region species of the S2-expressed Fab is not given; modification not given
Fab AP33 (Mus musculus) [2] = details: domain or fragment; Disulfide-linked heavy and light Fab chains. No candidate fits and the paper prints no AP33 sequence. PDB 4GAG (murine AP33 Fab with the E2 412-423 peptide) is cited from memory; entities 1 and 2 are assumed to be the antibody chains, and the peptide entity is excluded. The C-terminal double Strep tag on the heavy chain is omitted. The constant-region species of the S2-expressed Fab is not given; modification not given

Binder	Kd (Fab AP33 (Mus musculus) [1]) [nM]	Kd (Fab AP33 (Mus musculus) [2]) [nM]
B1	44.9	
B2		58.4
